# Results published in patent publication US20110236900, “NOVEL MUTS PROTEIN AND METHOD FOR DETERMING MUTATION USING THE SAME” (RIKEN, published 2011).
# Positions count from the first letter of the chain named.
# T1: Aac MutS (Alicyclobacillus acidocaldarius subsp. acidocaldarius JCM5260)
# T1 sequence: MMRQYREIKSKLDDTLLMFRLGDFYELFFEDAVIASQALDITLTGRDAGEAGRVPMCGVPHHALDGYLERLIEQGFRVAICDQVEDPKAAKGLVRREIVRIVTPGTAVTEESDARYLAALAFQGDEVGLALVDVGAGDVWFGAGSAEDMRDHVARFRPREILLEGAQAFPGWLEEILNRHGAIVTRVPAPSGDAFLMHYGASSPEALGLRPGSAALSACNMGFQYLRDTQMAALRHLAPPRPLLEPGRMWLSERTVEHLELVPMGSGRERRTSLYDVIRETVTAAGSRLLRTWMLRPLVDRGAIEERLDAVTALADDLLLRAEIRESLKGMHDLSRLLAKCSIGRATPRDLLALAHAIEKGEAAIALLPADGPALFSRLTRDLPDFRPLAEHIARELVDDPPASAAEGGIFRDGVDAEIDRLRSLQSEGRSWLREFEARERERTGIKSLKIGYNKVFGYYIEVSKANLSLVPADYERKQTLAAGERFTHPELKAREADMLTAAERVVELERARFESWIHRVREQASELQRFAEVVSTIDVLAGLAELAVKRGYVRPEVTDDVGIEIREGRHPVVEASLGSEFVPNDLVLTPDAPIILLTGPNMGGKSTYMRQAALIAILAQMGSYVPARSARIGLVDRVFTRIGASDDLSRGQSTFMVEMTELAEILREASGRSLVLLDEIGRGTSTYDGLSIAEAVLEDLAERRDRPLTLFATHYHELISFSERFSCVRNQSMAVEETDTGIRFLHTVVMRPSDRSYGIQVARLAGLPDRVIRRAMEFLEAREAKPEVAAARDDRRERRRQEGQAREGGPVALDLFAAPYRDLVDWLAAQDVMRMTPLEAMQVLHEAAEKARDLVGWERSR
# T2: Aac MutS (Alicyclobacillus acidocaldarius subsp. …)
# T2 chain: T1 sequence
# T3: Taq MutS (Thermus aquaticus, UniProt Q56215 Q56215:1-811)
# T3 sequence: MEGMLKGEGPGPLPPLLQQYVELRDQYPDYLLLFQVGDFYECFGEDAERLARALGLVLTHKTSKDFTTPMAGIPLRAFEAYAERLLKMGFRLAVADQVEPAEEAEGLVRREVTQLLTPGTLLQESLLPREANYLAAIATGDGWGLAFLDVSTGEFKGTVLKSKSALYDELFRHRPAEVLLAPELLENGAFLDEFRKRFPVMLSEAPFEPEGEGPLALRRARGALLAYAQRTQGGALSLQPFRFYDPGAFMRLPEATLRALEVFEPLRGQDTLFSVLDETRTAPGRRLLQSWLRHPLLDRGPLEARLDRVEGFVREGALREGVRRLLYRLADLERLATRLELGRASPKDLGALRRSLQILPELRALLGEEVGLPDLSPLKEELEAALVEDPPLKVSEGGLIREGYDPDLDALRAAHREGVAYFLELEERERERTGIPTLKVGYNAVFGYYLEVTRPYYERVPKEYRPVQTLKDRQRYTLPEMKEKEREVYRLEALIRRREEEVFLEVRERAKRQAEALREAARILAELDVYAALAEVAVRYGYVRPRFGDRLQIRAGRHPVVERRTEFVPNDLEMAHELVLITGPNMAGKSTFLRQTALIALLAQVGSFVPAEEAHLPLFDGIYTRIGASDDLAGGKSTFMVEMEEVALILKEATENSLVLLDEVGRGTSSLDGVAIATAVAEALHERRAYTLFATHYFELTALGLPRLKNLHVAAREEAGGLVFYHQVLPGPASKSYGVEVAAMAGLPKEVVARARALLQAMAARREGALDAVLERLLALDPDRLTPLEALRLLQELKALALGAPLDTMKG
# B1: T/G mismatched duplex (dsDNA)
# DNA 1: CCGCTGAATTGCACCGAGCTTGATCCTCGATGATCCTAAGCGATCCATG
# DNA 2: CATGGATCGCTTAGGATCATCGAGGATCGAGCTCGGTGCAATTCAGCGG
# B2: C/G fully-matched duplex (dsDNA)
# DNA 1: B1 DNA 1 with T21C
# DNA 2: B1 DNA 2
# Legend:
# [1] = system: T1, Aac MutS (Alicyclobacillus acidocaldarius subsp. acidocaldarius JCM5260); assay: SPR; details: 20 mM MgCl2
# Aac MutS [2] = target: T2, Aac MutS; assay: SPR; Example 2; no nucleotide, 20 mM MgCl2, 50 mM KCl, pH 7.6; details: tags: none stated (pET17b, E. coli BL21-CodonPlus(DE3)RIL); chain copies: 2 stated; label: 5'-biotin on T-strand; single G-T mismatch
# Experimental: (§1) The chip was set in BIACORE3000, then the running buffer was passed through a channel of the chip at a flow rate of 10 μL/min, and an experiment was started as follows. First, 5 μmol/L C-strand DNA, 5 μmol/L T-strand DNA, and 5 μmol/L Del-strand DNA as regands were passed through the respective three flow cells contained in the chip at a flow rate of 10 μL/min, and they were bound to each other until the Resonance Unit reached about 150 RU (Resonance Unit). Subsequently, 5 μmol/L of the G-strand DNA was injected into each of the flow cells at a flow rate of 20 μL/min for 2 minutes, and thereafter, the flow cells were washed with the running buffer for 10 minutes. Thus, double-stranded DNAs between the C-strand DNA and the G-strand DNA, between T-strand DNA and the same, and between the Del-strand DNA and the same were formed. Then, an Aac MutS solution with the predetermined concentration (0.1, 0.2, 0.5, 1, 2, or 4 μmol/L) was injected into each of the flow cells at a flow rate of 20 μL/min for 10 minutes, and thereafter, the flow cells were washed with the running buffer for 20 minutes. While injecting and washing, signal intensity was measured from the start of the injection of the Aac MutS. In Comparative Example 1, signal intensity was measured by the same treatment as that of Example 2 using Taq MutS derived from Thermus aquatieus as substitute for the Aac MutS.
# Aac MutS [3] = target: T2, Aac MutS; assay: SPR; Example 3-1; 1 mM ADP, 20 mM MgCl2, 50 mM KCl, pH 7.6; details: tags: none stated (pET17b, E. coli BL21-CodonPlus(DE3)RIL); chain copies: 2 stated; label: 5'-biotin on T-strand; single G-T mismatch
# Experimental: as §1, with “Then, an Aac MutS solution with the predetermined concentration (0.1, 0.2, 0.5, 1, 2, or 4 μmol/L) was injected into each of the flow cells at a flow rate of 20 μL/min for 10 minutes, and thereafter, the flow cells were washed with the running buffer for 20 minutes.” left out
# (§2) The signal intensity was measured in the same manner as in Example 2 except that 1 mmol/L ADP or ATP was added to the running buffer of Example 2. […] In Comparative Example 2, the signal intensity was measured using the Taq MutS in the same manner as in Example 3. […]
# Taq MutS [4] = target: T3, Taq MutS; assay: SPR; Comp. Ex. 1; no nucleotide, 20 mM MgCl2, 50 mM KCl, pH 7.6; details: label: 5'-biotin on T-strand; single G-T mismatch
# Experimental: as §1
# Taq MutS [5] = target: T3, Taq MutS; assay: SPR; Comp. Ex. 2-1; 1 mM ADP, 20 mM MgCl2
# Experimental: as §1, with “Then, an Aac MutS solution with the predetermined concentration (0.1, 0.2, 0.5, 1, 2, or 4 μmol/L) was injected into each of the flow cells at a flow rate of 20 μL/min for 10 minutes, and thereafter, the flow cells were washed with the running buffer for 20 minutes.” left out
# as §2
# Taq MutS [6] = target: T3, Taq MutS; assay: SPR; Comp. Ex. 1; no nucleotide, 20 mM MgCl2; details: label: 5'-biotin on C-strand
# Experimental: as §1
molecule,measurement,setting,value
CCGCTGAATTGCACCGAGCTCGATCCTCGATGATCCTAAGCGATCCATG (double strand) [C/G fully-matched duplex],Kd,"[1]; Example 2, no nucleotide, text says binding not found",65500 nM
same,Kd,"[1]; Example 3-1, 1 mM ADP, binding described as sufficiently suppressed",19800 nM
B1,Kd,Aac MutS [2],1450 nM
same,Kd,Aac MutS [3],330 nM
same,Kd,Taq MutS [4],622 nM
same,Kd,"Taq MutS [5]; label: 5'-biotin on T-strand, single G-T mismatch",2260 nM
B2,Kd,Taq MutS [6],2270 nM
same,Kd,Taq MutS [5]; label: 5'-biotin on C-strand,6580 nM
